Results as given in US20130072665A1.

Experiments:
[1] = target: cynomolgus monkey PCSK9 (cynomolgus monkey); assay: BIAcore, antibody immobilised, pH 7.4
[2] = target: cynomolgus monkey PCSK9 (cynomolgus monkey); assay: KinExA solution equilibrium
[3] = target: human PCSK9 (proprotein convertase subtilisin kexin type 9) (human) (UniProt Q8NBP7); assay: BIAcore solution equilibrium, pH 5.5
[4] = target: cynomolgus monkey PCSK9 (cynomolgus monkey); assay: BIAcore solution equilibrium, column To Cyno PCSK9
[5] = target: human PCSK9 (proprotein convertase subtilisin kexin type 9) (human) (UniProt Q8NBP7); assay: BIAcore solution equilibrium, pH 7.4
[6] = target: human PCSK9 (proprotein convertase subtilisin kexin type 9) (human) (UniProt Q8NBP7); assay: BIAcore solution equilibrium, pH 6.0
31H4, anti-PCSK9 huIgG4 = assay: KinExA solution equilibrium, % free 31H4.1 against [cPCSK9]; curve with diamonds; 10 pM or 100 pM 31H4 series not labelled
31H4, anti-PCSK9 huIgG4, sequence (heavy, as listed by the source, chain 1 of 2): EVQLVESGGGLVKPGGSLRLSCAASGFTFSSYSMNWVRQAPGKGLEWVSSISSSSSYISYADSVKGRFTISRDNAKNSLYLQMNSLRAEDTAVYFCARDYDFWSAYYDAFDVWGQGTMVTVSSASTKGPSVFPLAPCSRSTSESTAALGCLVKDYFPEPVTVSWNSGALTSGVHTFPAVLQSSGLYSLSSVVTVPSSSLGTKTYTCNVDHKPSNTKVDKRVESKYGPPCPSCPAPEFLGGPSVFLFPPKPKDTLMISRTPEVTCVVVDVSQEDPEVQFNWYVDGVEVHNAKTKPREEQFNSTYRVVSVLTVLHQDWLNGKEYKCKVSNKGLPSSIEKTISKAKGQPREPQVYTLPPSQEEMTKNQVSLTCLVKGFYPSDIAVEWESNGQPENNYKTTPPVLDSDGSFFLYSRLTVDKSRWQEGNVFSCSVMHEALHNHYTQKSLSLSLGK
31H4, anti-PCSK9 huIgG4, sequence (light, as listed by the source, chain 2 of 2): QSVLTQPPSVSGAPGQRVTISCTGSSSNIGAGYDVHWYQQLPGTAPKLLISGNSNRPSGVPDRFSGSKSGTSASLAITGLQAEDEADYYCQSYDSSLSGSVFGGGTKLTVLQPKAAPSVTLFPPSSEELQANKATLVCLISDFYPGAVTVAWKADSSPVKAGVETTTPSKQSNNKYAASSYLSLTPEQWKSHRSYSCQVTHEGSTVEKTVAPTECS

## 31H4, anti-PCSK9 huIgG4 (antibody)
[1]
  Kd: 0.19 nM
[2]
  Kd: 2 pM

## AMG145 (antibody)
[3]
  Kd: 0.028 nM
[4]
  Kd: 8 pM
[5]
  Kd: 0.019 nM
[6]
  Kd: 6 pM

## cynomolgus monkey PCSK9 (from UniProt A0A7N9D9N8 150-747) (enzyme)
31H4, anti-PCSK9 huIgG4
  IC50 (read off the curve): 10 pM
